Data on three molecules can be found in PMC11544177 (Acta Pharmaceutica Sinica. B, 2024).

For data set [1], the target named is T1, mitochondrial acetyl-CoA acetyltransferase 1 (ACAT1) (Homo sapiens, UniProt P24752).
T1 sequence (P24752 34-427): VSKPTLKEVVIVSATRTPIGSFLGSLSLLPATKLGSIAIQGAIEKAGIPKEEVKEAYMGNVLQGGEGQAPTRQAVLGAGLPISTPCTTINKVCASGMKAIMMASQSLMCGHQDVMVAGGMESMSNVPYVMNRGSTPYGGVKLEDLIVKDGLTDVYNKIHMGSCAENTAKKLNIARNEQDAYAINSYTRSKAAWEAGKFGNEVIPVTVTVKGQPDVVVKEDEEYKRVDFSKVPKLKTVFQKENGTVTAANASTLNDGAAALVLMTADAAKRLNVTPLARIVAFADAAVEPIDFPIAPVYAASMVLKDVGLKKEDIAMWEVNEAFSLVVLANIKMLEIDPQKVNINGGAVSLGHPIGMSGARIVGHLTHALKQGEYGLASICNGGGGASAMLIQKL
As to the kind of experiment: SPR. The class given is binding.

Data set [2] has as its target mitochondrial acetyl-CoA acetyltransferase 1 (ACAT1), purified recombinant human, His-tagged (human) (UniProt P24752). The experiment in a line: native gel or EMSA.
The target is the same in data set [3]. The experiment in a line: negative-stain electron microscopy.
For data set [4] the target is unchanged. The experiment in a line: cryo-EM structure.
The data set “native gel or EMSA” concerns the molecule itself. As to the kind of experiment: native gel or EMSA. A general note: In EMSA bound probe runs differently from free probe, usually more slowly.

Turning to `O=C(/C=C/c1ccc(O)c(O)c1)O[C@@H]1C[C@](O)(C(=O)O)C[C@@H](O)[C@H]1O` [CGA, Chlorogenic acid], the dissociation constant Kd (as a rule, the constant that tells how readily two partners part at equilibrium) in data set [1] was about 2580 nM. On to “mitochondrial acetyl-CoA acetyltransferase 1 (ACAT1), purified recombinant human, His-tagged (from UniProt P24752 34-427) (enzyme)”, for which the stoichiometry N in data set [2], in data set [3] and in data set [4] was 4 each time.

B1: ACAT1, endogenous in A375 human melanoma cells (enzyme, human (endogenous in A375), UniProt P24752 34-427, looked up)
chain: T1 sequence (P24752 34-427)
For B1, the stoichiometry N – broadly, a count of units in the complex or per binding partner – in “native gel or EMSA” was determined as 4.
